Test results: patent US20240182536A1 (MURAL ONCOLOGY, published 2024)
Numbering of substitutions follows the chain as printed. Names may count otherwise.

B1: IL-18 variant G3H, N91V, K53S (ligand)
chain: YFHKLESKLSVIRNLNDQVLFIDQGNRPLFEDMTDSDMRDNAPRTIFIISMYSDSQPRGMAVTISVKSEKISTLSSENKIISFKEMNPPDVIKDTKSDIIFFQRSVPGHDNKMQFESSSYEGYFLASEKERDLFKLILKKEDELGDRSIMFTVQNED
notes: also called G3H/K53S/N91V
B2: IL-18 variant K53T, S55A (ligand)
chain: B1 chain with H3G, S53T, S55A, V91N
B3: IL-18 variant K53T, S55P (ligand)
chain: B1 chain with H3G, S53T, S55P, V91N
B4: IL-18 variant G3N, E6Y, K53Q, D54W, S55R, N91T, R104P (ligand)
chain: B1 chain with H3N, E6Y, S53Q, D54W, S55R, V91T, R104P
B5: IL-18 variant K53S, S55K (ligand)
chain: B1 chain with H3G, S55K, V91N
B6: IL-18 variant G3E, E6A, K53Q, D54W, S55V, T63M, N91M, R104N (ligand)
chain: B1 chain with H3E, E6A, S53Q, D54W, S55V, T63M, V91M, R104N
B7: IL-18 variant K53S, S55Y (ligand)
chain: B1 chain with H3G, S55Y, V91N

Key:
[1] = target: T1, IL-18 receptors on HEK-Blue IL-18 reporter cells (InvivoGen) (UniProt Q13478 19-541; O95256 20-599); assay: cell-based or functional assay
T1 sequence (looked up) 1: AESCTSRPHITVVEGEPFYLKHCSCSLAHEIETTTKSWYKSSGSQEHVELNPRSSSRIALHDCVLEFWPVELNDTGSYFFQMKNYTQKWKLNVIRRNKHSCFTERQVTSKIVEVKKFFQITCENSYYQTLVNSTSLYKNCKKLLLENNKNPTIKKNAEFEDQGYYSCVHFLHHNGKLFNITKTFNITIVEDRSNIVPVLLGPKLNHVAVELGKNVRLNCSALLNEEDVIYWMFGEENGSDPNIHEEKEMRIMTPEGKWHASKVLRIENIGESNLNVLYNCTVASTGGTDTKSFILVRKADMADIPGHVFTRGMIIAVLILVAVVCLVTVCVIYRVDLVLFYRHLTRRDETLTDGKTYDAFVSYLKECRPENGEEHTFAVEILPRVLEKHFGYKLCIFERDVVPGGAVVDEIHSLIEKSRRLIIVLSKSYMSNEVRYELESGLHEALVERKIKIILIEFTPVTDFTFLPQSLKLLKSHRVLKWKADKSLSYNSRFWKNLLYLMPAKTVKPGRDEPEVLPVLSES
T1 sequence (looked up) 2: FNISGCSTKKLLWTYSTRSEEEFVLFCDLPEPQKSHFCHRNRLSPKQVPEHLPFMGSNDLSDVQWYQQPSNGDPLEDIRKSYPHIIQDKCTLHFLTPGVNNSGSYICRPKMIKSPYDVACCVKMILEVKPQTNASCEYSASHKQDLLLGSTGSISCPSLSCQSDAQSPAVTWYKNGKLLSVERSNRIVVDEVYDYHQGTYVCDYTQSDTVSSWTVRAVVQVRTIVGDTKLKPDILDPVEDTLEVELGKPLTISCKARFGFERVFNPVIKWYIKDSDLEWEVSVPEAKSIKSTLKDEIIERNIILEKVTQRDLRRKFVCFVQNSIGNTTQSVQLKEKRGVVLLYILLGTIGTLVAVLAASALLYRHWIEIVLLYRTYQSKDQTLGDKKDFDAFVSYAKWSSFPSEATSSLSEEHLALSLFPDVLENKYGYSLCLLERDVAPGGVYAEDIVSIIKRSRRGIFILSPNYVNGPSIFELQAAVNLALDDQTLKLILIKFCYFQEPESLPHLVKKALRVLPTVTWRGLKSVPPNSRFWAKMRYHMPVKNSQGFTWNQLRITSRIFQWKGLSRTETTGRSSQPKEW

[2] = target: T2, human IL-18 binding protein (IL-18BP) (human, UniProt O95998 31-194); assay: cell-based or functional assay
T2 sequence (looked up): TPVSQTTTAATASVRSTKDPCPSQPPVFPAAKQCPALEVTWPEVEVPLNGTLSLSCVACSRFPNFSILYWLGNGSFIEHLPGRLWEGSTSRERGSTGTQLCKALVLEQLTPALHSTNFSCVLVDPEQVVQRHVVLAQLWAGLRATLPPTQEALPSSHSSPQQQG

[3] = target: T3, IL-18 receptor (IL-18Rα and IL-18Rβ) (UniProt Q13478 19-541; O95256 20-599, limits assumed); assay: cell-based or functional assay
T3 sequence (looked up) 1: T1 sequence (looked up) 1
T3 sequence (looked up) 2: T1 sequence (looked up) 2

[4] = target: T2, human IL-18 binding protein (IL-18BP); assay: Octet BLI
Experimental: Octet 96red instrument was used to determine affinities of IL18 proteins to BP or receptors. 5-10 ug/ml analyte proteins were used for loading on Sartorius tips (AHC or SA). […] 120-180 s loading, 200 s association and 800 s dissociation were used for kinetics. 3-7 data points were used to calculate affinities.
Select G3/K53-substitution containing IL-18 variants and select G3/K53/N91-substitution containing TL-18 variants were tested for activity in the HEK-blue activity assay and for binding affinity to IL-18BP. As shown in the data of Table 15 and Table 16 below, each variant had similar or better activity than WT IL-18, and retained substantial activity in the presence of IL-18BP.

[5] = target: T4, IL-18 receptors on HEK-Blue IL-18 reporter cells (UniProt Q13478 19-541; O95256 20-599, limits assumed); assay: cell-based or functional assay
T4 sequence (looked up) 1: T1 sequence (looked up) 1
T4 sequence (looked up) 2: T1 sequence (looked up) 2

[6] = target: T5, interleukin 18 binding protein (IL-18BP) (UniProt O95998 31-194); assay: cell-based or functional assay
T5 sequence (looked up): T2 sequence (looked up)

[7] = target: T6, interleukin 18 binding protein (IL-18BP) (UniProt O95998 31-194); assay: cell-based or functional assay; remark: listed apart in the source
T6 sequence (looked up): T2 sequence (looked up)

| Binder | HEK-blue EC50 (pM) - BP [5] | HEK-blue EC50 (pM) + 300 nM BP [6] | Ratio [6] | other results |
| --- | --- | --- | --- | --- |
| B1 | – | – | – | HEK-Blue Ec50 (pM), -IL-18BP [1]: 0.94 pM; HEK-Blue Ec50 (pM), +IL-18BP (50 nM) [2]: 2.51 pM; EC50 pM, IFN gamma expression in PBMCs [3]: 222 pM; Kd [4]: 8.6 nM; koff [4]: 0.0031 s⁻¹; kon [4]: 359000 M⁻¹ s⁻¹ |
| B2 | 67.4 pM | 140 pM | 2.1 | – |
| B3 | 103 pM | 133 pM | 1.3 | – |
| B4 | – | – | – | Ratio (-BP/+BP), DF-1000005 [7]: 1.02; Ratio (-BP/+BP), DF-5000006 [7]: 0.93; Ratio (-BP/+BP), DF-25000007 [7]: 1.03 |
| B5 | 21.8 pM | 18.1 pM | 0.8 | – |
| B6 | – | – | – | Ratio (-BP/+BP), DF-1000005 [7]: 0.97; Ratio (-BP/+BP), DF-5000006 [7]: 1.03; Ratio (-BP/+BP), DF-25000007 [7]: 0.99 |
| B7 | 70 pM | 136 pM | 1.9 | – |
